Measurements from patent publication US20180250335.

Assays:
Experiment in all cases: cell_activity
[1] = system: TALEN 2R1 (TAP1 exon 1 right arm) (synthetic construct); conditions: as pair 2L3*2R1 in hESCs, puromycin selection; SEQ 24 in the listing is printed reversed
[2] = system: TALEN 1R2 (TAPBP exon 2 right arm) (synthetic construct); conditions: as pair 1L2*1R2 in hESCs, puromycin selection; SEQ 28 in the listing is printed reversed
[3] = system: TALEN 1L2 (TAPBP exon 2 left arm) (synthetic construct); conditions: as pair 1L2*1R2 in hESCs, puromycin selection; one or two alleles
[4] = system: TALEN 2L3 (TAP1 exon 1 left arm) (synthetic construct); conditions: as pair 2L3*2R1 in hESCs, puromycin selection; one or two alleles

GGCAAGTCCCGGCAGGG (double strand) [TAP1 exon 1 right half-site]
activity (% clones targeted) [1]: 27.1

CTCTTGGCCAGGCCCTTT (double strand) [TAPBP exon 2 right half-site]
activity (% clones targeted) [2]: 33.3

GATCGAGTGTTGGTT (double strand) [TAPBP exon 2 left half-site]
activity (% clones targeted) [3]: 33.3

TGAAGCCATTAGCTG (double strand) [TAP1 exon 1 left half-site]
activity (% clones targeted) [4]: 27.1
